Assay results as given in patent US20160200763A1 (RAMOT AT TEL AVIV UNIVERSITY, published 2016).
Square brackets hold non-standard residues; d marks the D form. Ends that are not written are not given here. * marks the point of attachment. Myristoyl = CCCCCCCCCCCCCC(=O)*; pS = N[C@@H](COP(=O)(O)O)C(=O)O

What follows are binders tested against Bacterially expressed Purified GSK-3β Wild-Type (WT) (human, UniProt P49841 1-420) (assay: cell-based or functional assay).
Chain of Bacterially expressed Purified GSK-3β Wild-Type (WT) (P49841 other isoform, or with tags, fused parts or gaps limits assumed): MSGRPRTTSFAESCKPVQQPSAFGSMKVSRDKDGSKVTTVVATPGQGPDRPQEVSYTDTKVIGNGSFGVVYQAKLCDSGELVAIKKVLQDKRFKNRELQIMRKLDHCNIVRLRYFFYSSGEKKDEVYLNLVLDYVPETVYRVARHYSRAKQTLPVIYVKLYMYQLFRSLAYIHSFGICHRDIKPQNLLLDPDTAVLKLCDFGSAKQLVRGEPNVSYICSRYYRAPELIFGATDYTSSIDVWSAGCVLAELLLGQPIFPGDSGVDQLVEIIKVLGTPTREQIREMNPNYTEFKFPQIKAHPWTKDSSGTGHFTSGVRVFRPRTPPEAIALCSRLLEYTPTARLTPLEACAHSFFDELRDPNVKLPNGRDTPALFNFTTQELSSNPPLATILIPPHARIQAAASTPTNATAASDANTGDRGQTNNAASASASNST
In the case of KEAPPAPPQ[pS]P [L803], the “IC50, inhibition of GSK-3β phosphorylation of pIRS-1 (in vitro kinase assay)” value (from here on “IC50, inhibition”) is reported as 200 µM. For Myristoyl-GKEAPPAPPQ[pS]P [L803-mts], the “IC50, inhibition” value was 40 µM. With KEAPPSPPQ[pS]P [L807] the “IC50, inhibition” value was 16 µM.
